Data reported in patent US20130303439A1, “CHIMERIC PEPTIDES INCLUDING A PENETRATING PEPTIDE AND A BINDING DOMAIN OF PP2A CATALYTIC SUBUNIT TO CASPASE-9” (Institut National de la Sante et de la Recherche Medicale …, priority 2010, published 2013).
Residues, ends and D or L forms follow the SMILES beside them. No end group written: not given here.

B1: DPT-C9r (fusion of DPT-sh1 and C9 reverse sequence) (peptide)
peptide: VKKKKIKREIKILDESRAWQELIGDLTEIY
modifications: also: biotinylated, position not given here
notes: Negative control peptide; Used biotinylated in the pull-down
B2: C9 peptide (mouse caspase-9 aa 401-418, PP2Ac binding domain) (peptide)
peptide: YIETLDGILEQWARSEDL
modifications: also: biotinylated, position not given here
notes: Synthetic, non cell-penetrating peptide; Used biotinylated on streptavidin beads in the pull-down; also called C9m

Assays:
[1] = Cell penetration / internalization of peptides; format: cell-based
human caspase-9 = target: T1, human caspase-9 (Homo sapiens, UniProt P55211); test: Caspase-9-binding assay on cellulose-bound peptides containing human PP2Ac sequences; settings: dodecapeptides bound onto cellulose membrane
T1 sequence (P55211 1-416): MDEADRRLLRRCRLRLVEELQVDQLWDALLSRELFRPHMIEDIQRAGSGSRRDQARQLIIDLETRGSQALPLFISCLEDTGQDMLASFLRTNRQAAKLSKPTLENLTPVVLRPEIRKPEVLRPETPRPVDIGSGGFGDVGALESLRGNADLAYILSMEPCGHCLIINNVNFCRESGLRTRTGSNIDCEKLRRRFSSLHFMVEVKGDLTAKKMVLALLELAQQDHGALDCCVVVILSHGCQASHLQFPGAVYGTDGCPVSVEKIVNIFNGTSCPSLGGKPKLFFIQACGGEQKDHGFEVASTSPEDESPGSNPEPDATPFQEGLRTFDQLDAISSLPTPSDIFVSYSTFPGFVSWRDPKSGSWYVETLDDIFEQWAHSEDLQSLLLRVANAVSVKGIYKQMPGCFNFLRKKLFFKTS
Procedure: Overlapping dodecapeptides covering the whole human PP2Ac sequence were prepared by atomated spot synthesis (Abimed, Langerfield, Germany) onto an amino-derived cellulose membrane, as described (Frank and Overwin, 1996 Meth. Mol. Biol. 66, 149-169; Gausepohl et al., 1992 Pept Res, 5, 315-320). The membrane was saturated using 3% BSA and 3% non-fat dry milk, incubated with purified human caspase-9 and after several washing steps, incubates with anti-caspase-9 antibody, followed by PO-conjugated secondary antibody. Positive spots were visualized using the ECL system.
To identify peptides containing PP2Ac sequences able to binding to caspase-9, a series of 150 overlapping dodecapeptides (shift of 2 amino acids) from human PP2Ac (sequence deduced from NCBI, accession number NP_00270601) were bound onto a cellulose membrane and incubated with purified caspase-9.

PP2Ac = target: T2, PP2Ac (Mus musculus, UniProt P63330); test: Pull down assay of biotinylated peptides with cell lysate, Western blot with PP2Ac antibody; format: binding, murine; settings: cellular extracts from IL-2-stimulated cells
T2 construct: endogenous in cells; host or cells: TS1αβ murine T cell line, IL-2-stimulated, NP-40 lysate
Procedure: Biotinylated peptides were preincubated 2 h at 0-100 μM (in final concentration with lysate) at room temperature with 30 μl of streptavidin-coated immunomagnetic beads (Calbiochem, San Diego Calif.). During this time, […] exponentially growing TS1αβ cells were first washed twice with PBS and then lysed 10 minutes on ice in 400 μl of lysis buffer (50 mM Tris pH7.4, 150 mM NaCl, 20% glycerol, 1% NP-40, 10 mM EDTA, 1 mM PhenylMethylSulfonyl Fluoride, 10 mM NaF, 1 mM orthovanadate, “complete, EDTA-free” protease inhibitor cocktail from Roche).
Lysates were clarified at 13000 g for 10 minutes at 4° C. and were incubated with biotinylated peptides associated with the streptavidin-coated immunomagnetic beads 2 h at 4° C. Biotinylated peptides were pulled down with streptavidin beads and washed two times in 700 μl of lysis buffer on ice. Bound proteins and unbound lysates were then analyzed by SDS-PAGE and Western Blotting using PP1c or PP2Ac antibodies.
To determine the capacity of DPT-C9 to interact with PP2Ac, the inventors performed pull-down experiments using cellular extracts from IL-2-stimulated cells incubated with biotinylated peptides or beads alone.

TS1αβ cells = test: Cell death assay (annexin V / PI flow cytometry); format: cell-based, murine; settings: peptides at 150 μM
Procedure: An Annexin-V-FITC conjugated kit (Roche) was used for the assessment of outer leaflet exposure of phosphatidylserine (PS) in the plasma membrane of apoptotic cells. Staining was performed according to the manufacturer's instructions. A total of […] cells were analyzed by flow cytometry in a FACSCalibur cytofluometer (BD Biosciences). Necrotic cells were excluded by propidium iodide (PI) staining, and single annexin V positive cells were considered apoptotic. For apoptotic analysis the different peptides were used at 150 μM.
Using flow cytometry detection of annexin V and PI, the inventors analyzed the capacity of DPT-C9 to induce apoptosis in TS1αβ cells cultured in presence of IL-2. In contrast to non penetrating C9 peptide, DPT-C9 induced a 6-fold increase of apoptosis.

[2] = target: T3, PP2Ac (catalytic subunit of PP2A) from lysate of IL-2-stimulated murine TS1αβ cells (mouse, UniProt P63330 1-309); test: pull-down from IL-2-stimulated TS1αβ cell lysate with biotinylated peptide on streptavidin beads, Western blot
T3 construct: Endogenous protein from cell lysate, detected by Western blot with a PP2Ac antibody; It may have been part of a PP2A holoenzyme in the lysate

[3] = target: T4, caspase-9 from lysate of murine TS1αβ cells (mouse, UniProt Q8C3Q9 1-454, limits assumed); test: as above
T4 construct: Endogenous protein in the lysate; also called murine caspase-9; mouse caspase-9
T4 sequence (looked up): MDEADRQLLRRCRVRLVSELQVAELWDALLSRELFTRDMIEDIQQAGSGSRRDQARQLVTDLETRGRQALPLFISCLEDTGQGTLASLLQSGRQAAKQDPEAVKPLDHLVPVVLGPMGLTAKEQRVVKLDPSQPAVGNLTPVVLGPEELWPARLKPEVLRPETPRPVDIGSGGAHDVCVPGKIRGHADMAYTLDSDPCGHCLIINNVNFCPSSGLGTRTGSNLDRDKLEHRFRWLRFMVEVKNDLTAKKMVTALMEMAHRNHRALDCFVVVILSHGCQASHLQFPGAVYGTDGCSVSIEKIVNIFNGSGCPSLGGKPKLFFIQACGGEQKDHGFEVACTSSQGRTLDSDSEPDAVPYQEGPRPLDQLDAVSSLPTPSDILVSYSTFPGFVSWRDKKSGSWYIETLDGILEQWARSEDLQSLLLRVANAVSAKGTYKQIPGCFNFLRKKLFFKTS

T3 sequence (P63330 whole entry): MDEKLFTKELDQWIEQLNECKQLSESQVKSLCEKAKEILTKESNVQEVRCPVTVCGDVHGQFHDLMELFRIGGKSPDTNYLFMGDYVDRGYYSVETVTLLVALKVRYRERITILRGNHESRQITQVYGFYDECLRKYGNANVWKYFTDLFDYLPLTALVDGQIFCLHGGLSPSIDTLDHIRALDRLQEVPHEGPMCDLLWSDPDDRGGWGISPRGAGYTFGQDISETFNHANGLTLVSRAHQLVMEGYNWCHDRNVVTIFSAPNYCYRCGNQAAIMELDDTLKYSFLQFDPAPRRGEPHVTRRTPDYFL
T2 sequence (P63330 whole entry): as above

Row | Molecule | Cell penetration [1] | internalized [1] | binding to purified caspase-9 (human caspase-9) | further results
1 | CC[C@H](C)[C@H](NC(=O)CNC(=O)[C@H](CC(=O)O)NC(=O)[C@H](CC(C)C)NC(=O)[C@@H](NC(=O)[C@H](CCC(=O)O)NC(=O)[C@@H](NC(=O)[C@@H](N)Cc1ccc(O)cc1)[C@@H](C)CC)[C@@H](C)O)C(=O)N[C@@H](CC(C)C)C(=O)N[C@@H](CCC(=O)O)C(=O)N[C@@H](CCC(N)=O)C(=O)N[C@@H](Cc1c[nH]c2ccccc12)C(=O)N[C@@H](C)C(=O)N[C@@H](CCCNC(=N)N)C(=O)N[C@@H](CO)C(=O)N[C@@H](CCC(=O)O)C(=O)N[C@@H](CC(=O)O)C(=O)N[C@@H](CC(C)C)C(=O)O [C9, YIETLDGILEQWARSEDL] (H-YIETLDGILEQWARSEDL-OH; N-terminus and C-terminus assumed) | No | is not internalized |  | 
2 | CC[C@H](C)[C@H](NC(=O)CNC(=O)[C@H](CC(=O)O)NC(=O)[C@H](CC(C)C)NC(=O)[C@@H](NC(=O)[C@H](CCC(=O)O)NC(=O)[C@@H](NC(=O)[C@H](Cc1ccc(O)cc1)NC(=O)[C@@H](NC(=O)[C@H](CCCCN)NC(=O)[C@@H](NC(=O)[C@H](CCC(=O)O)NC(=O)[C@H](CCCNC(=N)N)NC(=O)[C@H](CCCCN)NC(=O)[C@@H](NC(=O)[C@H](CCCCN)NC(=O)[C@H](CCCCN)NC(=O)[C@H](CCCCN)NC(=O)[C@H](CCCCN)NC(=O)[C@@H](N)C(C)C)[C@@H](C)CC)[C@@H](C)CC)[C@@H](C)CC)[C@@H](C)CC)[C@@H](C)O)C(=O)N[C@@H](CC(C)C)C(=O)N[C@@H](CCC(=O)O)C(=O)N[C@@H](CCC(N)=O)C(=O)N[C@@H](Cc1c[nH]c2ccccc12)C(=O)N[C@@H](C)C(=O)N[C@@H](CCCNC(=N)N)C(=O)N[C@@H](CO)C(=O)N[C@@H](CCC(=O)O)C(=O)N[C@@H](CC(=O)O)C(=O)N[C@@H](CC(C)C)C(=O)O [DPT-C9, VKKKKIKREIKI-YIETLDGILEQWARSEDL] (H-VKKKKIKREIKIYIETLDGILEQWARSEDL-OH; N-terminus and C-terminus assumed) | Yes | are internalized |  | 
3 | CC[C@H](C)[C@H](NC(=O)[C@H](CC(C)C)NC(=O)[C@H](CCC(=O)O)NC(=O)[C@H](CCC(N)=O)NC(=O)[C@H](Cc1c[nH]c2ccccc12)NC(=O)[C@H](C)NC(=O)[C@H](CCCNC(=N)N)NC(=O)[C@H](CO)NC(=O)[C@H](CCC(=O)O)NC(=O)[C@H](CC(=O)O)NC(=O)[C@H](CC(C)C)NC(=O)[C@@H](NC(=O)[C@H](CCCCN)NC(=O)[C@@H](NC(=O)[C@H](CCC(=O)O)NC(=O)[C@H](CCCNC(=N)N)NC(=O)[C@H](CCCCN)NC(=O)[C@@H](NC(=O)[C@H](CCCCN)NC(=O)[C@H](CCCCN)NC(=O)[C@H](CCCCN)NC(=O)[C@H](CCCCN)NC(=O)[C@@H](N)C(C)C)[C@@H](C)CC)[C@@H](C)CC)[C@@H](C)CC)C(=O)NCC(=O)N[C@@H](CC(=O)O)C(=O)N[C@@H](CC(C)C)C(=O)N[C@H](C(=O)N[C@@H](CCC(=O)O)C(=O)N[C@H](C(=O)N[C@@H](Cc1ccc(O)cc1)C(=O)O)[C@@H](C)CC)[C@@H](C)O [DPT-C9r, VKKKKIKREIKI-LDESRAWQELIGDLTEIY] (H-VKKKKIKREIKILDESRAWQELIGDLTEIY-OH; N-terminus and C-terminus assumed) | Yes | are internalized |  | 
4 | N=C(N)NCCC[C@H](NC(=O)[C@H](CCCNC(=N)N)NC(=O)[C@H](CCCNC(=N)N)NC(=O)[C@H](CCC(N)=O)NC(=O)[C@H](CCCNC(=N)N)NC(=O)[C@H](CCCNC(=N)N)NC(=O)[C@H](CCCCN)NC(=O)[C@H](CCCCN)NC(=O)[C@H](CCCNC(=N)N)NC(=O)CNC(=O)[C@@H](N)Cc1ccc(O)cc1)C(=O)O [Tat, YGRKKRRQRRR] |  | are internalized |  | 
5 | DTLDHIRALDRL (Synthetic PP2A peptide) [dodecapeptide from human PP2Ac] |  |  | bind to purified caspase-9 | 
6 | HIRALDRLQEVP (Synthetic PP2A peptide) [dodecapeptide from human PP2Ac] |  |  | bind to purified caspase-9 | 
7 | LDHIRALDRLQE (Synthetic PP2A peptide) [dodecapeptide from human PP2Ac] |  |  | bind to purified caspase-9 | 
8 | LDRLQEVPHEGP (Synthetic PP2A peptide) [dodecapeptide from human PP2Ac] |  |  | bind to purified caspase-9 | 
9 | RALDRLQEVPHE (Synthetic PP2A peptide) [dodecapeptide from human PP2Ac] |  |  | bind to purified caspase-9 | 
10 | VKKKKIKREIKI [DPT-sh1] | Yes | are internalized |  | interact with PP2Ac (PP2Ac): do not interact with PP2Ac; induction of apoptosis / cell death (in words) (TS1αβ cells): behaves as negative control
11 | B1 |  |  |  | binding result [2]: no binding (tested: 0-100 µM peptide)
12 | B2 |  |  |  | binding result [3]: no binding (tested: 0-100 µM peptide)
13 | VKKKKIKREIKIYIETLDGILEQWARSEDL (also: biotinylated, position not given here, Used biotinylated in the pull-down) [DPT-C9 (fusion of DPT-sh1 shuttle and C9 sequence)] |  |  |  | binding result [3]: no binding (tested: 0-100 µM peptide)
